Laboratory results reported in patent US20030148973A1, “MAGE-A1 peptides for treating or preventing cancer” (priority 2001, published 2003).

Biological target: T1, HLA-A0201 molecules on T2 cells (Homo sapiens, UniProt P04439, D140Y/D185E/D98H/E176V/E277Q/G131W/G231S/I119V/I121R/I166T/I218V/L300P/L318F/N151K/N90K/P208A/P217A/Q86G/Q94H/R138H/R169H/T345S)
T1 construct: endogenous in cells; host or cells: T2 cell line (from Dr. Peter Creswell, Yale University)
Experiment: Binding and stabilization of surface HLA-A0201 on T2 cells (BB7.2 antibody, flow cytometry)
Conditions: 20 μg peptide pulsed onto 10^6 denatured T2 cells, 4 hours at 26° C.; BB7.2 binding detected with FITC conjugate
Experimental: The ability of the MAGE-A1 derived peptides to be presented in the context of HLA-A2 was determined by the ability of such peptides stabilize membrane-bound HLA-A0201 molecules The T2 cell line (Dr. Peter Creswell, Yale University) has been well documented to have a defective TAP (e.g. Transporter for Antigen Processing) transporter function. As a result, the majority of intracellularly generated peptides are not transported into the endoplasmic reticulum and thus are unable to associate with newly synthesized HLA class 1 MHC molecules (e.g. HLA-A0201; Salter, R D and Creswell, P. (1986) EMBO J 5:943). […] The stability of the surface HLA-A0201 molecules can be restored upon interaction with suitable exogenous peptides. […]
In order to determine whether the identified nonapeptides can be presented by HLA-A0201, T2 cells were propagated in RPMI complete medium (RPMI medium supplemented with 10% heat-inactivated bovine serum, 120.0 units per ml of penicillin G sodium, 120 μg per ml of streptomycin sulphate, and 0.35 mg per ml of L-glutamine). The ability of MAGE-A1 derived peptides to bind and stabilize surface HLA-A0201 molecules on T2 cells was determined utilizing a standard protocol (Deng, Y. (1997) J Immunol 158:1507-1515). […] The binding of BB7.2 was detected via the addition of 1.0 μg per test of goat anti-mouse IgG-Fc fluorescein (FITC) conjugate (BETHYL Laboratories Inc). […]

- Fluorescence Index (FI): 1.73
Sequence: CLGLSYDGL (listed as Homo sapiens) [MAGE-A1 174]
